How the values were obtained:
soluble human FcRn [1] = molecular target: T1, soluble human FcRn (human, UniProt P55899 24-297; P61769 21-119); test: SPR (Biacore), pH 7.0, 25 C;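 further: antibodies captured on a protein L-coated CM4 chip with human FcRn injected as analyte, KD obtained from ka and kd fitted to sensorgrams, in sodium phosphate buffer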
T1 construct: Heterodimer of alpha chain and beta2-microglobulin; also called hFcRn
Method: An appropriate amount of protein L (ACTIGEN) was immobilized onto Sensor chip CM4 (GE Healthcare) by the amino coupling method, and the chip was allowed to capture an antibody of interest. Then, diluted FcRn solutions and running buffer (as a reference solution) were injected to allow human FcRn to interact with the antibody captured on the sensor chip. The running buffer used comprised 50 mmol/l sodium phosphate, 150 mmol/l NaCl, and 0.05% (w/v) Tween20 (pH 7.0). FcRn was diluted using each buffer. The chip was regenerated using 10 mmol/l glycine-HCl (pH 1.5). Assays were carried out exclusively at 25 degrees C. The association rate constant ka (1/Ms) and dissociation rate constant kd (1/s), both of which are kinetic parameters, were calculated based on the sensorgrams obtained in the assays, and KD (M) of each antibody for human FcRn was determined from these values. Each parameter was calculated using Biacore T100 Evaluation Software (GE Healthcare).

soluble human FcRn [2] = molecular target: T1, soluble human FcRn; test: SPR (Biacore), pH 7.0

Binder | Kd (soluble human FcRn [1]) | Kd (soluble human FcRn [2])
IgG1-F1370 (antibody) heavy: QVQLQESGPGLVKPSETLSLTCAVSGHSISHDHAWSWVRQPPGEGLEWIGFISYSGITNYNPSLQGRVTISRDNSKNTLYLQMNSLRAEDTAVYYCARSLARTTAMDYWGEGTLVTVSSASTKGPSVFPLAPSSKSTSGGTAALGCLVKDYFPEPVTVSWNSGALTSGVHTFPAVLQSSGLYSLSSVVTVPSSSLGTQTYICNVNHKPSNTKVDKKVEPKSCDKTHTCPPCPAPELRGGPKVFLFPPKPKDTLYITREPEVTCVVVDVSHEDPEVKFNWYVDGVEVHNAKTKPREEQYNSTYRVVSVLTVLHQDWLNGKEYKCKVSNKALPAPIEKTISKAKGQPREPQVYTLPPSRDELTKNQVSLTCLVKGFYPSDIAVEWESNGQPENNYKTTPPVLDSDGSFFLYSKLTVDKSRWQQGNVFSCSVMHEALDYHVTKKELSLSP light: not shown | 91 nM | 91 nM
IgG1-F1378 (antibody) heavy: QVQLQESGPGLVKPSETLSLTCAVSGHSISHDHAWSWVRQPPGEGLEWIGFISYSGITNYNPSLQGRVTISRDNSKNTLYLQMNSLRAEDTAVYYCARSLARTTAMDYWGEGTLVTVSSASTKGPSVFPLAPSSKSTSGGTAALGCLVKDYFPEPVTVSWNSGALTSGVHTFPAVLQSSGLYSLSSVVTVPSSSLGTQTYICNVNHKPSNTKVDKKVEPKSCDKTHTCPPCPAPELRGGPKVFLFPPKPKDTLYISRTPEVTCVVVDVSHEDPEVKFNWYVDGVEVHNAKTKPREEQYNSTYRVVSVLTVLHQDWLNGKEYKCKVSNKALPAPIEKTISKAKGQPREPQVYTLPPSRDELTKNQVSLTCLVKGFYPSDIAVEWESNGQPENNYKTTPPVLDSDGSFFLYSKLTVDKSRWQQGNVFSCSVMHEALHYHTTQKSLSLSP light: not shown | 360 nM | 360 nM
IgG1-F1371 (antibody) heavy: QVQLQESGPGLVKPSETLSLTCAVSGHSISHDHAWSWVRQPPGEGLEWIGFISYSGITNYNPSLQGRVTISRDNSKNTLYLQMNSLRAEDTAVYYCARSLARTTAMDYWGEGTLVTVSSASTKGPSVFPLAPSSKSTSGGTAALGCLVKDYFPEPVTVSWNSGALTSGVHTFPAVLQSSGLYSLSSVVTVPSSSLGTQTYICNVNHKPSNTKVDKKVEPKSCDKTHTCPPCPAPELRGGPKVFLFPPKPKDTLYITREPEVTCVVVDVSHEDPEVKFNWYVDGVEVHNAKTKPREEQYNSTYRVVSVLTVLHQDWLNGKEYKCKVSNKALPAPIEKTISKAKGQPREPQVYTLPPSRDELTKNQVSLTCLVKGFYPSDIAVEWESNGQPENNYKTTPPVLDSDGSFFLYSKLTVDKSRWQQGNVFSCSVMHEALDYHVTRKELSLSP light: not shown | 110 nM | 110 nM
IgG1-F1379 (antibody) heavy: QVQLQESGPGLVKPSETLSLTCAVSGHSISHDHAWSWVRQPPGEGLEWIGFISYSGITNYNPSLQGRVTISRDNSKNTLYLQMNSLRAEDTAVYYCARSLARTTAMDYWGEGTLVTVSSASTKGPSVFPLAPSSKSTSGGTAALGCLVKDYFPEPVTVSWNSGALTSGVHTFPAVLQSSGLYSLSSVVTVPSSSLGTQTYICNVNHKPSNTKVDKKVEPKSCDKTHTCPPCPAPELRGGPKVFLFPPKPKDTLYISRTPEVTCVVVDVSHEDPEVKFNWYVDGVEVHNAKTKPREEQYNSTYRVVSVLTVLHQDWLNGKEYKCKVSNKALPAPIEKTISKAKGQPREPQVYTLPPSRDELTKNQVSLTCLVKGFYPSDIAVEWESNGQPENNYKTTPPVLDSDGSFFLYSKLTVDKSRWQQGNVFSCSVMHEALHYHFTQKSLSLSP light: not shown | 280 nM | 280 nM
IgG1-F1419 (antibody) heavy: QVQLQESGPGLVKPSETLSLTCAVSGHSISHDHAWSWVRQPPGEGLEWIGFISYSGITNYNPSLQGRVTISRDNSKNTLYLQMNSLRAEDTAVYYCARSLARTTAMDYWGEGTLVTVSSASTKGPSVFPLAPSSKSTSGGTAALGCLVKDYFPEPVTVSWNSGALTSGVHTFPAVLQSSGLYSLSSVVTVPSSSLGTQTYICNVNHKPSNTKVDKKVEPKSCDKTHTCPPCPAPELRGGPKVFLFPPKPKDTLYISRTPEVTCVVVDVSHEDPEVKFNWYVDGVEVHNAKTKPREEQYNSTYRVVSVLTVLHQDWLNGKEYKCKVSNKALPAPIEKTISKAKGQPREPQVYTLPPSRDELTKNQVSLTCLVKGFYPSDIAVEWESNGQPENNYKTTPPVLDSDGSFFLYSKLTVDKSRWQQGNVFSCSVMHEALDWHVTRKELSLSP light: not shown | 150 nM | 150 nM
IgG1-F1413 (antibody) heavy: QVQLQESGPGLVKPSETLSLTCAVSGHSISHDHAWSWVRQPPGEGLEWIGFISYSGITNYNPSLQGRVTISRDNSKNTLYLQMNSLRAEDTAVYYCARSLARTTAMDYWGEGTLVTVSSASTKGPSVFPLAPSSKSTSGGTAALGCLVKDYFPEPVTVSWNSGALTSGVHTFPAVLQSSGLYSLSSVVTVPSSSLGTQTYICNVNHKPSNTKVDKKVEPKSCDKTHTCPPCPAPELRGGPKVFLFPPKPKDTLYITREPEVTCVVVDVSHEDPEVKFNWYVDGVEVHNAKTKPREEQYNSTYRVVSVLQVLHADWLNGKEYKCKVSNKALPAPIEKTISKAKGQPREPQVYTLPPSRDELTKNQVSLTCLVKGFYPSDIAVEWESNGQPENNYKTTPPVLDSDGSFFLYSKLTVDKSRWQQGNVFSCSVMHEALDYHVTKKELSLSP light: not shown | 37 nM | 37 nM
IgG1-F1433 (antibody) heavy: QVQLQESGPGLVKPSETLSLTCAVSGHSISHDHAWSWVRQPPGEGLEWIGFISYSGITNYNPSLQGRVTISRDNSKNTLYLQMNSLRAEDTAVYYCARSLARTTAMDYWGEGTLVTVSSASTKGPSVFPLAPSSKSTSGGTAALGCLVKDYFPEPVTVSWNSGALTSGVHTFPAVLQSSGLYSLSSVVTVPSSSLGTQTYICNVNHKPSNTKVDKKVEPKSCDKTHTCPPCPAPELRGGPKVFLFPPKPKDTLYISREPEVTCVVVDVSHEDPEVKFNWYVDGVEVHNAKTKPREEQYNSTYRVVSVLDPLHQDWLNGKEYKCKVSNKALPAPIEKTISKAKGQPREPQVYTLPPSRDELTKNQVSLTCLVKGFYPSDIAVEWESNGQPENNYKTTPPVLDSDGSFFLYSKLTVDKSRWQQGNVFSCSVMHEALDYHVTRKELSLSP light: not shown | 45 nM | 

Further binders by falling Kd (soluble human FcRn [1]), results first:

Kd (soluble human FcRn [1]) | Kd (soluble human FcRn [2]) | Binder
36 nM |  | IgG1-F1434 (antibody) heavy: QVQLQESGPGLVKPSETLSLTCAVSGHSISHDHAWSWVRQPPGEGLEWIGFISYSGITNYNPSLQGRVTISRDNSKNTLYLQMNSLRAEDTAVYYCARSLARTTAMDYWGEGTLVTVSSASTKGPSVFPLAPSSKSTSGGTAALGCLVKDYFPEPVTVSWNSGALTSGVHTFPAVLQSSGLYSLSSVVTVPSSSLGTQTYICNVNHKPSNTKVDKKVEPKSCDKTHTCPPCPAPELRGGPKVFLFPPKPKDTLYISREPEVTCVVVDVSHEDPEVKFNWYVDGVEVHNAKTKPREEQYNSTYRVVSVLEPLHQDWLNGKEYKCKVSNKALPAPIEKTISKAKGQPREPQVYTLPPSRDELTKNQVSLTCLVKGFYPSDIAVEWESNGQPENNYKTTPPVLDSDGSFFLYSKLTVDKSRWQQGNVFSCSVMHEALDYHVTRKELSLSP light: not shown
31 nM |  | IgG1-F1430 (antibody) heavy: QVQLQESGPGLVKPSETLSLTCAVSGHSISHDHAWSWVRQPPGEGLEWIGFISYSGITNYNPSLQGRVTISRDNSKNTLYLQMNSLRAEDTAVYYCARSLARTTAMDYWGEGTLVTVSSASTKGPSVFPLAPSSKSTSGGTAALGCLVKDYFPEPVTVSWNSGALTSGVHTFPAVLQSSGLYSLSSVVTVPSSSLGTQTYICNVNHKPSNTKVDKKVEPKSCDKTHTCPPCPAPELRGGPKVFLFPPKPKDTLYISREPEVTCVVVDVSHEDPEVKFNWYVDGVEVHNAKTKPREEQYNSTYRVVSELTPLHQDWLNGKEYKCKVSNKALPAPIEKTISKAKGQPREPQVYTLPPSRDELTKNQVSLTCLVKGFYPSDIAVEWESNGQPENNYKTTPPVLDSDGSFFLYSKLTVDKSRWQQGNVFSCSVMHEALDYHVTRKELSLSP light: not shown
18 nM |  | IgG1-F1426 (antibody) heavy: QVQLQESGPGLVKPSETLSLTCAVSGHSISHDHAWSWVRQPPGEGLEWIGFISYSGITNYNPSLQGRVTISRDNSKNTLYLQMNSLRAEDTAVYYCARSLARTTAMDYWGEGTLVTVSSASTKGPSVFPLAPSSKSTSGGTAALGCLVKDYFPEPVTVSWNSGALTSGVHTFPAVLQSSGLYSLSSVVTVPSSSLGTQTYICNVNHKPSNTKVDKKVEPKSCDKTHTCPPCPAPELRGGPKVFLFPPKPKDTLYISREPEVTCVVVDVSHEDPEVKFNWYVDGVEVHNAKTKPREEQYNSTYRVESVLTPLHQDWLNGKEYKCKVSNKALPAPIEKTISKAKGQPREPQVYTLPPSRDELTKNQVSLTCLVKGFYPSDIAVEWESNGQPENNYKTTPPVLDSDGSFFLYSKLTVDKSRWQQGNVFSCSVMHEALDYHVTRKELSLSP light: not shown
15 nM |  | IgG1-F1428 (antibody) heavy: QVQLQESGPGLVKPSETLSLTCAVSGHSISHDHAWSWVRQPPGEGLEWIGFISYSGITNYNPSLQGRVTISRDNSKNTLYLQMNSLRAEDTAVYYCARSLARTTAMDYWGEGTLVTVSSASTKGPSVFPLAPSSKSTSGGTAALGCLVKDYFPEPVTVSWNSGALTSGVHTFPAVLQSSGLYSLSSVVTVPSSSLGTQTYICNVNHKPSNTKVDKKVEPKSCDKTHTCPPCPAPELRGGPKVFLFPPKPKDTLYISREPEVTCVVVDVSHEDPEVKFNWYVDGVEVHNAKTKPREEQYNSTYRVVEVLTPLHQDWLNGKEYKCKVSNKALPAPIEKTISKAKGQPREPQVYTLPPSRDELTKNQVSLTCLVKGFYPSDIAVEWESNGQPENNYKTTPPVLDSDGSFFLYSKLTVDKSRWQQGNVFSCSVMHEALDYHVTRKELSLSP light: not shown
13 nM | 13 nM | IgG1-F1416 (antibody) heavy: QVQLQESGPGLVKPSETLSLTCAVSGHSISHDHAWSWVRQPPGEGLEWIGFISYSGITNYNPSLQGRVTISRDNSKNTLYLQMNSLRAEDTAVYYCARSLARTTAMDYWGEGTLVTVSSASTKGPSVFPLAPSSKSTSGGTAALGCLVKDYFPEPVTVSWNSGALTSGVHTFPAVLQSSGLYSLSSVVTVPSSSLGTQTYICNVNHKPSNTKVDKKVEPKSCDKTHTCPPCPAPELRGGPKVFLFPPKPKDTLYITREPEVTCVVVDVSHEDPEVKFNWYVDGVEVHNAKTKPREEQYNSTYRVVSVLTPLHQDWLNGKEYKCKVSNKALPAPIEKTISKAKGQPREPQVYTLPPSRDELTKNQVSLTCLVKGFYPSDIAVEWESNGQPENNYKTTPPVLDSDGSFFLYSKLTVDKSRWQQGNVFSCSVMHEALDYHVTKKELSLSP light: not shown

Source: patent publication US20140363428A1 (Chugai, published 2014)
